In one assay the target is T1, Fibronectin receptor (human, UniProt P08648 42-1049; P05556 21-798).
T1 construct: mature; Purified on a 110 kd fibronectin fragment column; also called Fn-R; FnR
Description: competitive ELISA, fibronectin coated.

A further assay concerns the target T2, Vitronectin receptor (human, UniProt P06756 31-1048; P05106 27-788).
T2 construct: mature; also called Vn-R; VnR
Description: competition, ELISA or liposome assay, vitronectin coated.

Assay [1] deals with Platelet glycoprotein IIb/IIIa (human, UniProt P08514 32-1039; P05106 27-788). Description: cell-based or functional assay.

Starred links: 1 amine or outer side, 2 acyl side, 3 side chain; linkers in the order of their positions; H or OH if unused. Positions of bridges follow the written chain, without caps; N, C: chain ends. Non-standard residues stand in square brackets, D forms with d. Primed or numbered codes have the meaning given here. No end group written: not given here. *: point of attachment. Tyr(OMe)″ = O-methyl-tyrosine (Y-OMe, TyrOMe, O-Me-Tyr), COc1ccc(C[C@H](N[*:1])C(=O)[*:2])cc1; Tyr(Me)(4) = O-methyl-tyrosine (O-Me-Tyr, TyrMe), COc1ccc(C[C@H](N[*:1])C(=O)[*:2])cc1; Tyr(Me) = O-methyl-tyrosine (Y-OMe, O-Me-Tyr), COc1ccc(C[C@H](N[*:1])C(=O)[*:2])cc1; Tyr(Me)(3) = O-methyl-tyrosine (O-Me-Tyr), COc1ccc(C[C@H](N[*:1])C(=O)[*:2])cc1; Tyr(nHex) = O-n-hexyl-tyrosine, CCCCCCOc1ccc(C[C@H](N[*:1])C(=O)[*:2])cc1; Tyr(OMe)(3) = O-methyl-tyrosine, COc1ccc(C[C@H](N[*:1])C(=O)[*:2])cc1; Cys(β,β-pentamethylene) = O=C([C@@H](N[*:1])C1(S[*:3])CCCCC1)[*:2]; Phe(4-NO2) = N[C@@H](Cc1ccc([N+](=O)[O-])cc1)C(=O)O; Tyr(3,5-I2) = N[C@@H](Cc1cc(I)c(O)c(I)c1)C(=O)O; Cyclohexylacetyl(1-SH) = O=C(CC1(S)CCCCC1)*; 1Nal = N[C@@H](Cc1cccc2ccccc12)C(=O)O; dPen = CC(C)(S)[C@@H](N)C(=O)O; Pen = CC(C)(S)[C@H](N)C(=O)O

T1 sequence (P08648 42-1049, chain 1 of 2): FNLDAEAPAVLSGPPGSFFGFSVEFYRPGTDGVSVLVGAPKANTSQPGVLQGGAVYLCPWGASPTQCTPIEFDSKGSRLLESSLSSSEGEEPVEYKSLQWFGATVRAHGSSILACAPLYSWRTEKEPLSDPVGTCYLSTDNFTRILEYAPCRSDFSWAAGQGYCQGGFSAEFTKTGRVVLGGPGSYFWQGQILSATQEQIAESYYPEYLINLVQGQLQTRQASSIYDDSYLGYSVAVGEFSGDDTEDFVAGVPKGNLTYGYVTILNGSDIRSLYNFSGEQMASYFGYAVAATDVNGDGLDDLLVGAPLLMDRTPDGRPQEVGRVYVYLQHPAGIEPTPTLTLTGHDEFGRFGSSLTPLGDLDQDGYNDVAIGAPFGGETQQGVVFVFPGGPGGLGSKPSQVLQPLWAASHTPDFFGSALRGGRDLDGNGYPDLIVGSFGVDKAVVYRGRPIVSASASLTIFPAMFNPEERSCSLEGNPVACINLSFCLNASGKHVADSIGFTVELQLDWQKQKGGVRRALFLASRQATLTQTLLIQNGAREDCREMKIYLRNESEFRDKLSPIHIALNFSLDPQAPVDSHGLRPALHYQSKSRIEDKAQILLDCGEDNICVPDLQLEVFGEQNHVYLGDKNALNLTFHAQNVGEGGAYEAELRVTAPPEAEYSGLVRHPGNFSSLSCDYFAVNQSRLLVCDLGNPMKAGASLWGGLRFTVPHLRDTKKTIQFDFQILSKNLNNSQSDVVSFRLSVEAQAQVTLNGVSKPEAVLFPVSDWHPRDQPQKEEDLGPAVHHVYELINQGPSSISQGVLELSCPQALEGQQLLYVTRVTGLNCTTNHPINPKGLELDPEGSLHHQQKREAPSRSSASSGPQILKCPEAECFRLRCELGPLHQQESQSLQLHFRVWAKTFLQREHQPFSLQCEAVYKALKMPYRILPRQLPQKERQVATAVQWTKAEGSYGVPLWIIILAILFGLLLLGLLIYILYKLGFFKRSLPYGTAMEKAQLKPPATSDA
T1 sequence (P05556 21-798, chain 2 of 2): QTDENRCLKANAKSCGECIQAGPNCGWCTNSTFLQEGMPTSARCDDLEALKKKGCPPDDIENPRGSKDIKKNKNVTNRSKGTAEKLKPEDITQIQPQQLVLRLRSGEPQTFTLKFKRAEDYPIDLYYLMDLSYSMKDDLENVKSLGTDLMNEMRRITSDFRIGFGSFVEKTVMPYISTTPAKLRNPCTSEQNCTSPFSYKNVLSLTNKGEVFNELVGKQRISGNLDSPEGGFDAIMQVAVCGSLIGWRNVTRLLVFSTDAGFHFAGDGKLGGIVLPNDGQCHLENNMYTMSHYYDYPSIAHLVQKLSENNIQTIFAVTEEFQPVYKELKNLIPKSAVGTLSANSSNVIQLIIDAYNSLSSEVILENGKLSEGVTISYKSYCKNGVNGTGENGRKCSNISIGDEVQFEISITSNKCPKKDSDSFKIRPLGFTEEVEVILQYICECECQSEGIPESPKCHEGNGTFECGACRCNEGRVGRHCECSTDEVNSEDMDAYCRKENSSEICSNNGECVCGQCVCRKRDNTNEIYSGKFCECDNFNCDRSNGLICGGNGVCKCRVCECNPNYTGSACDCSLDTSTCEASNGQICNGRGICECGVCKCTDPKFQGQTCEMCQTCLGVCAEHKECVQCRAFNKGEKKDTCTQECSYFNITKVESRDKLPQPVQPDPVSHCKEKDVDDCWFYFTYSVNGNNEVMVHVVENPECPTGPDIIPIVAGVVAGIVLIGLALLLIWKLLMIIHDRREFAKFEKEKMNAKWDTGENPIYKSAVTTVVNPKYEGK
T2 sequence (P06756 31-1048, chain 1 of 2): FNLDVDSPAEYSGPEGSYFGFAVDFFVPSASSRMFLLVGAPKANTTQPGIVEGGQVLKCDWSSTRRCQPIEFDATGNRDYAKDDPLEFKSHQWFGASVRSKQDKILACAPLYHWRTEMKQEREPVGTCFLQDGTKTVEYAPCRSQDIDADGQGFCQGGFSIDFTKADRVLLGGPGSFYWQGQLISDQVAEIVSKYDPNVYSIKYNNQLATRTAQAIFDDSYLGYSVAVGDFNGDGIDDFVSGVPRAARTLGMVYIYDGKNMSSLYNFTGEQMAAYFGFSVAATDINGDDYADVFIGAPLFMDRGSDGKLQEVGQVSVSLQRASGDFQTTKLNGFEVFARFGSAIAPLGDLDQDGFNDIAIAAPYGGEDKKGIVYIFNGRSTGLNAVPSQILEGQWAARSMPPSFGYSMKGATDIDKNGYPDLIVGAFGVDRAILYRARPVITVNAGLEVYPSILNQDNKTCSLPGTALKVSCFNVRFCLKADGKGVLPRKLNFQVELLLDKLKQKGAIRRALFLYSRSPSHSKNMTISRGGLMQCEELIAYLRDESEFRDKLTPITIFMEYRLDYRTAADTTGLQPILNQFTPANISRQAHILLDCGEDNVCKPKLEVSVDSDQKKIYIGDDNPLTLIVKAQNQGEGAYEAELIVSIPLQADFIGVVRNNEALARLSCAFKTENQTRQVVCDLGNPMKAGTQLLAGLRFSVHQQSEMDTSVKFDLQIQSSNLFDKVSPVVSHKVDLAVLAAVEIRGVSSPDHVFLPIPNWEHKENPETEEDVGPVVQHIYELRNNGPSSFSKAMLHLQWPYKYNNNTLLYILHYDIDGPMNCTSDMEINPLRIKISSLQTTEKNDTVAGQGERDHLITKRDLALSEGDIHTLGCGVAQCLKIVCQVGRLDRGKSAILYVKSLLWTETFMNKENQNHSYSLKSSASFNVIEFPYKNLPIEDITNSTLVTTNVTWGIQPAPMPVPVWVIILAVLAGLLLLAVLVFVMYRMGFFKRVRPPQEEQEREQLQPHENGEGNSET
T2 sequence (P05106 27-788, chain 2 of 2): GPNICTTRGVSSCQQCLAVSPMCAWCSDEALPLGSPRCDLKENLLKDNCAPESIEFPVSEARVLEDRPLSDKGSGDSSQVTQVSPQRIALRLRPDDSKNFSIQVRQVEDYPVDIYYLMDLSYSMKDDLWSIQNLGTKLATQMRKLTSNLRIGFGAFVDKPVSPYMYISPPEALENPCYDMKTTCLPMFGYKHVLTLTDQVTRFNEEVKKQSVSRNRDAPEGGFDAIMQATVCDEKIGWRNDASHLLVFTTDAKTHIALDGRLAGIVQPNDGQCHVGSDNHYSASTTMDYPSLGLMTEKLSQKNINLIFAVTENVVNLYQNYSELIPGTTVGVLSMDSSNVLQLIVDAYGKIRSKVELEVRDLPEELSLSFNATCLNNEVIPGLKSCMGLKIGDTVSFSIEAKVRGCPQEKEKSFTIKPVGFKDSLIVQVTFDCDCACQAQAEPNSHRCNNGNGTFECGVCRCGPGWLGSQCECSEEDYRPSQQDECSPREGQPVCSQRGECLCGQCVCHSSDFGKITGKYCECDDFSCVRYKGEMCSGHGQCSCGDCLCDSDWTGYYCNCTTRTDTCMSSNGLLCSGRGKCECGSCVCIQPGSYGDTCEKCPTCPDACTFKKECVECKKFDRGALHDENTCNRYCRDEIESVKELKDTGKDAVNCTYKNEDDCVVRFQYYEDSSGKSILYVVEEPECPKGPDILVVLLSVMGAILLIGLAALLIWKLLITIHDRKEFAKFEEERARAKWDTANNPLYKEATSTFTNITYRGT

B1: D(Pmc)GHRGD(O-Me-Tyr)RCR (peptide)
peptide: D[Cys(β,β-pentamethylene)]GHRGD[Tyr(OMe)″]RCR
modifications: disulfide 2-10
What is called IC50 is the point on the concentration scale where inhibition reaches its midpoint. For the molecule B1, in the assay with Fibronectin receptor, the IC50 came out at 10 µM.

B2: R(Pmc)GHRGD(p-nitro-Phe)KCR (peptide)
peptide: R[Cys(β,β-pentamethylene)]GHRGD[Phe(4-NO2)]KCR
modifications: disulfide 2-10
Turning to B2, in the assay with Vitronectin receptor, the IC50 came to 10 µM.

B3: R(Pmc)GHRGD(O-Me-Tyr)KCR (peptide)
peptide: R[Cys(β,β-pentamethylene)]GHRGD[Tyr(Me)]KCR
modifications: disulfide 2-10
B3: the IC50 with Fibronectin receptor and with Vitronectin receptor was 10 µM each time.

B4: G(Pmc)GHRGD(O-Me-Tyr)RCR (peptide)
peptide: G[Cys(β,β-pentamethylene)]GHRGD[Tyr(Me)(3)]RCR
modifications: disulfide 2-10
On to B4, for which the IC50 in the assay with Fibronectin receptor and with Vitronectin receptor was 10 µM each time.

B5: LRGDSPDG (peptide)
peptide: LRGDSPDG
In the case of B5, the “IC50, ADP-Stimulated Aggregation” value in assay [1] came to 150 µM. Moreover, in the assay with Vitronectin receptor, the IC50 was 0.2 µM.

B6: (Pmp)GHRGDLRCA (peptide)
peptide: [Cyclohexylacetyl(1-SH)]GHRGDLRCA
modifications: disulfide 1-9
Regarding B6, the IC50 with Vitronectin receptor is 10 µM.

B7: R(Pmc)GHRGDVRCR (peptide)
peptide: R[Cys(β,β-pentamethylene)]GHRGDVRCR
modifications: disulfide 2-10; not fully specified; printed as R(Pmc)GHRGDVRCR
B7: the “IC50, ADP-Stimulated Aggregation” value in assay [1] is 0.69 µM. This molecule returned an IC50 with Vitronectin receptor of 2 µM.

B8: R(Pmc)GHRGD(3,5-diiodo-Tyr)RCR (peptide)
peptide: R[Cys(β,β-pentamethylene)]GHRGD[Tyr(3,5-I2)]RCR
modifications: disulfide 2-10
The molecule B8 gave an IC50 with Vitronectin receptor of 0.9 µM.

B9: R(am-Pmp)GHRGD(TyrMe)RCR (peptide)
peptide: R[Cys(β,β-pentamethylene)]GHRGD[Tyr(Me)(4)]RCR
modifications: disulfide 2-10; also: am-Pmp2 from racemic mixture
In the assay with Vitronectin receptor, B9 registered an IC50 of 1 µM.

B10: R(dPen)NPRGD(O-Me-Tyr)RCR (peptide)
peptide: R[dPen]NPRGD[Tyr(OMe)(3)]RCR
modifications: disulfide 2-10
B10: in the assay with Fibronectin receptor, the IC50 stood at 10 µM.

B11: R(Pen)GHRGD(1-Nal)RCR (peptide)
peptide: R[Pen]GHRGD[1Nal]RCR
modifications: disulfide 2-10
The molecule B11 showed an IC50 in the assay with Fibronectin receptor of 10 µM.

B12: G(Pen)FRGDSFCA (peptide)
peptide: G[Pen]FRGDSFCA
modifications: disulfide 2-9
For the molecule B12, the “IC50, ADP-Stimulated Aggregation” value in assay [1] is below 200 µM. This molecule showed an IC50 with Vitronectin receptor of 0.05 µM.

B13: G(Pen)GRGDSFCA (peptide)
peptide: G[Pen]GRGDSFCA
modifications: disulfide 2-9
Turning to B13, the “IC50, ADP-Stimulated Aggregation” value in assay [1] was 115 µM. In addition, the IC50 with Vitronectin receptor was determined as 0.02 µM.

B14: K(Pen)GRGDTPCA (peptide)
peptide: K[Pen]GRGDTPCA
modifications: disulfide 2-9
notes: 21 numbers stand for 20 rows, so none is assigned
In the assay with Fibronectin receptor, B14 yielded an IC50 of 0.03 µM.

B15: R(Pmc)GHRGD(O-n-hexyl-Tyr)RCR (peptide)
peptide: R[Cys(β,β-pentamethylene)]GHRGD[Tyr(nHex)]RCR
modifications: disulfide 2-10
In turn, B15 displayed an IC50 in the assay with Fibronectin receptor of 2 µM.

B16: R(AminoPmp)GRGDTPCA (peptide)
peptide: R[Cys(β,β-pentamethylene)]GRGDTPCA
modifications: disulfide 2-9
With B16, in the assay with Fibronectin receptor, the IC50 is 0.03 µM.

B17: R(am-Pmp)GRGDWPCR (peptide)
peptide: R[Cys(β,β-pentamethylene)]GRGDWPCR
modifications: disulfide 2-9
Take B17: in the assay with Fibronectin receptor, the IC50 is 0.05 µM.

B18: R(Pen)GRGDTPCR (peptide)
peptide: R[Pen]GRGDTPCR
modifications: disulfide 2-9
B18: the “IC50, Thrombin Stimulated Aggregation” value in assay [1] was 2 µM. The molecule further showed an IC50 in the assay with Vitronectin receptor of 0.01 µM.

For the origin of these results see patent US6521594 (LA JOLLA CANCER RESEARCH FOUNDATION, dated 2003).
